# Assay results reported in patent publication US20240101668A1 (WUGEN, published 2024).
# T1: huCLL1-Q244-Avi-Tev-His (human, UniProt Q5QGZ9 65-265)
# T1 construct: extracellular domain; also called CLL-1 K244Q
# T1 sequence (looked up): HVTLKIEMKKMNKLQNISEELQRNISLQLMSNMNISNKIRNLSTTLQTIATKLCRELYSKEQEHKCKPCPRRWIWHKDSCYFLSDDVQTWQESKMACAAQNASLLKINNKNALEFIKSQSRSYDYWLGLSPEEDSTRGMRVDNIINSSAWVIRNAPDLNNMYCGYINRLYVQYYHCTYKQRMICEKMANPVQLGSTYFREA
# T2: huCLL1-K244-Avi-Tev-His (human, UniProt Q5QGZ9 65-265)
# T2 construct: extracellular domain
# T2 sequence (looked up): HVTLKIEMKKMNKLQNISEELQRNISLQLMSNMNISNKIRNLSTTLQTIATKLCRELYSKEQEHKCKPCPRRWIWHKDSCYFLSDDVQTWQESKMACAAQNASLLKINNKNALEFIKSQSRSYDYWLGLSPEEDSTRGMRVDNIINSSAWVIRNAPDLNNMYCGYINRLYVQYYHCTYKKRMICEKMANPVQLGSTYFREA
# How the values were obtained:
# huCLL1-Q244-Avi-Tev-His = biological target: T1, huCLL1-Q244-Avi-Tev-His; assay: BLI
# Description: (§1) Discovered scFvs were analyzed for binding to huCD33-R69-His or huCD33-G69-Fc recombinant proteins (for anti-CD33 scFvs; for CLL-1 scFvs, huCLL1-K244-Avi-Tev-His or huCLL1-Q244-Avi-Tev-His were used; for FLT3, huFLT3-T227-His or huFLT3-M227-Fc were used) using BLI on a ForteBio Octet HTX instrument. Streptavidin-coated biosensors were loaded with biotinylated anti-V5 tag monoclonal antibody for 5 min and were then quenched and blocked with 20 μM amine-PEG2-Biotin for 5 min. scFvs were captured on biosensors from scFv clone periplasmic extracts. huCD33 (or huCLL-1, or huFLT3) proteins were then associated with the captured scFvs for 2 minutes, followed by dissociation with buffer (1×HBST [10 mM HEPES pH 7.4, 150 mM NaCl, 0.05% Tween-20], 1 g/L BSA) for 5 minutes. […] Data was fitted with 1:1 Langmuir equation and off-rate values were reported.
# (§2) Analogous methods were used to assess selectivity of binding of polypeptides to CLL-1 K244 or CLL-1 Q244.
# huCLL1-K244-Avi-Tev-His = biological target: T2, huCLL1-K244-Avi-Tev-His; assay: BLI
# Description: as §1, §2
# 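Also: Bio-layer interferometry with scFvs captured on biosensors via anti-V5 antibody, exposed 2 min to CLL-1 K244 or Q244 protein, 5 min dissociation, scored as binding, no binding or ambiguous.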
Binder,binding result (huCLL1-Q244-Avi-Tev-His),binding result (huCLL1-K244-Avi-Tev-His)
"Polypeptide No. 68 (scFv, V domains shown, scFv) VH: QVQLVQSGAEVKKPGASVKVSCKASGYTFSSYDINWVRQAPGQGLEWVGWINPRNGGTDYAQKFQGRVTMTRDTSTSTVYMELSSLRSEDTAVYYCARHRWELDSFDYWGQGTLVTVSS VL: DIQMTQSPSSLSASVGDRVTITCRASQSISNYLNWYQQKPGKAPKLLIYATSSLQSGVPSRFSGSGSGTDFTLTISSLQPEDFATYYCQQGYNIPFTFGQGTKLEIKR",binds,no binding
"Polypeptide No. 66 (scFv, V domains shown, scFv) VH: QVQLVQSGAEVKKPGASVKVSCKASGYTFNTYYMHWVRQAPGQGLEWMGWMHPNTGNTGYAQKFQGRVTMTRDTSTSTVYMELSSLRSEDTAVYYCARGTTSDAFDIWGQGTMVTVSS VL: DIQMTQSPSSLSASVGDRVTITCRASQSIFSYLNWYQQKPGKAPKLLIYSASNLQSGVPSRFSGSGSGTDFTLTISSLQPEDFATYYCQQSYSTPITFGQGTKVEIKR",no binding,binds
"Polypeptide No. 78 (scFv, V domains shown, scFv) VH: QVQLVQSGAEVKKPGSSVKVSCKASGGTFSRYPFSWVRQAPGQGLEWMGWMNPNNGDTGYAQKFQGRVTITADESTSTAYMELSSLRSEDTAVYYCARGDYPYMDVWGKGTTVTVSS VL: DIQMTQSPSSLSASVGDRVTITCQASQDISNYLNWYQQKPGKAPKLLIYDASNLETGVPSRFSGSGSGTDFTLTISSLQPEDFATYYCQQSYSIPYTFGQGTKLEIKR",binds,no binding
"Polypeptide No. 74 (scFv, V domains shown, scFv) VH: QVQLVQSGAEVKKPGSSVKVSCKASGYTFTKYEINWVRQAPGQGLEWMGGIIPIFGTANYAQKFQGRVTITADESTSTAYMELSSLRSEDTAVYYCARGSGWYTPLFDYWGQGTLVTVSS VL: DIQMTQSPSSLSASVGDRVTITCRASQGISNNLNWYQQKPGKAPKLLIYDASYLETGVPSRFSGSGSGTDFTLTISSLQPEDFATYYCQQSYSAPLTFGQGTKVEIKR",binds,no binding
"Polypeptide No. 72 (scFv, V domains shown, scFv) VH: QVQLVQSGAEVKKPGASVKVSCKASGGTFSNYAISWVRQAPGQGLEWMGWISAYNGNSDYAQNLQGRVTMTRDTSTSTVYMELSSLRSEDTAVYYCAIGDYFDYWGQGTLVTVSS VL: DIQMTQSPSSLSASVGDRVTITCQASEDINKYLNWYQQKPGKAPKLLIYDASNLETGVPSRFSGSGSGTDFTLTISSLQPEDFATYYCQQANSFPLTFGQGTKVEIKR",binds,no binding
"Polypeptide No. 63 (scFv, V domains shown, scFv) VH: QVQLVQSGAEVKKPGASVKVSCKASGYTFTGYYVHWVRQAPGQGLEWMGVINPSGGGSPSYAQKFQGRVTMTRDTSTSTVYMELSSLRSEDTAVYYCARDRSDVDYGMDVWGQGTTVTVSS VL: DIQMTQSPSSLSASVGDRVTITCQASQDISNYLNWYQQKPGKAPKLLIYDASNLQSGVPSRFSGSGSGTDFTLTISSLQPEDFATYYCLQHNSYPLTFGGGTKVEIKR",no binding,binds
"Polypeptide No. 64 (scFv, V domains shown, scFv) VH: QVQLVQSGAEVKKPGASVKVSCKASGYTFTDYYMHWVRQAPGQGLEWMGLIDPSGGSTNSLQKFQGRVTMTRDTSTSTVYMELSSLRSEDTAVYYCARDVGFGELSFDIWGQGTTVTVSS VL: DIVMTQSPLSLPVTPGEPASISCRSSQSLLHSNGYNYLDWYLQKPGQSPQLLIYAASTLQSGVPDRFSGSGSGTDFTLKISRVEAEDVGVYYCMQGTHWPPTFGPGTKVDIKR",no binding,binds
"Polypeptide No. 82 (scFv, V domains shown, scFv) VH: QVQLVQSGAEVKKPGSSVKVSCKASGGTFSNYDISWVRQAPGQGLEWMGGIIPIFGTANYAQKFQGRVTITADESTSTAYMELSSLRSEDTAVYYCAREAEEGGWFDPWGQGTLVTVSS VL: EIVMTQSPATLSVSPGERATLSCRASQSVSSYLAWYQQKPGQAPRLLIYGASTRATGIPARFSGSGSGTEFTLTISSLQSEDFAVYYCQQYAFSPITFGQGTKLEIKR",binds,no binding

# Further lines, results first:
binding result (huCLL1-Q244-Avi-Tev-His),binding result (huCLL1-K244-Avi-Tev-His),Binder
no binding,binds,"Polypeptide No. 65 (scFv, V domains shown, scFv) VH: QVQLVQSGAEVKKPGASVKVSCKASGYTFTGYYMHWVRQAPGQGLEWMGWINPNSGGTNYAQKFQGRVTMTRDTSTSTVYMELSSLRSEDTAVYYCAREIGGYDNYYYYGMDVWGQGTTVTVSS VL: DIQMTQSPSSLSASVGDRVTITCRASQSIGTYLNWYQQKPGKAPKLLIYAASSLQSGVPSRFSGSGSGTDFTLTISSLQPEDFATYYCQQSYTDPWTFGQGTKVEIKR"
binds,no binding,"Polypeptide No. 70 (scFv, V domains shown, scFv) VH: EVQLLESGGGLVQPGGSLRLSCAASGMSVTSNHMSWVRQAPGKGLEWVSSIYPDGKTYYADSVKGRFTISRDNSKNTLYLQMNSLRAEDTAVYYCARDEEDWFDPWGQGTLVTVSS VL: DIQMTQSPSSLSASVGDRVTITCQASQSISNWLAWYQQKPGKAPKLLIYAASTLQSGVPSRFSGSGSGTDFTLTISSLQPEDFATYYCQQSYSTPWTFGQGTKVEIKR"
binds,no binding,"Polypeptide No. 80 (scFv, V domains shown, scFv) VH: QVQLVQSGAEVKKPGASVKVSCKASGFTFTSYYMHWVRQAPGQGLEWMGWMNPNSGNTGYAQRFQGRVTMTRDTSTSTVYMELSSLRSEDTAVYYCARGHSRTDYGMDVWGQGTTVTVSS VL: DIQMTQSPSSLSASVGDRVTITCRASQSISSWLAWYQQKPGKAPKLLIYDTSSLQSGVPSRFSGSGSGTDFTLTISSLQPEDFATYYCQQGYSTPLTFGQGTKVEIKR"
no binding,binds,"Polypeptide No. 62 (scFv, V domains shown, scFv) VH: QVQLVQSGAEVKKPGASVKVSCKASGYTFTDHFVHWVRQAPGQGLEWMGWISAYNGNTNYAQKFQGRVTMTRDTSTSTVYMELSSLRSEDTAVYYCARAEYSYGFDYWGQGTLVTVSS VL: DIQMTQSPSSLSASVGDRVTITCRASQGIHNYLAWYQQKPGKAPKLLIYDASNLETGVPSRFSGSGSGTDFTLTISSLQPEDFATYYCQQTSSFPYTFGQGTKLEIKR"
binds,no binding,"Polypeptide No. 67 (scFv, V domains shown, scFv) VH: QVQLVQSGAEVKKPGASVKVSCKASGDTFTRHYVHWVRQAPGQGLEWMGRVNPRDGRTNSAQKFQGRVTMTRDTSTSTVYMELSSLRSEDTAVYYCAKDMFPTVTGTYYYYGMDVWGQGTTVTVSS VL: DIQMTQSPSSLSASVGDRVTITCRASQGISSYLAWYQQKPGKAPKLLIYDASNLETGVPSRFSGSGSGTDFTLTISSLQPEDFATYYCQQASGFPYTFGQGTRLEIKR"
binds,no binding,"Polypeptide No. 76 (scFv, V domains shown, scFv) VH: QVQLVQSGAEVKKPGASVKVSCKASGYTFTTYYMHWVRQAPGQGLEWMGIINVSAGTTSYAQKFQGRVTMTRDTSTSTVYMELSSLRSEDTAVYYCAKEPYPHQSGWFFDYWGQGTLVTVSS VL: DIQMTQSPSSLSASVGDRVTITCQASQDINNYLNWYQQKPGKAPKLLIYDASNLETGVPSRFSGSGSGTDFTLTISSLQPEDFATYYCQQANSFPLTFGGGTKVEIKR"
binds,no binding,"Polypeptide No. 84 (scFv, V domains shown, scFv) VH: QVQLVQSGAEVKKPGASVKVSCKASGGTFSNYAISWVRQAPGQGLEWMGWINPNSGGTNYAQKFQGRVTMTRDTSTSTVYMELSSLRSEDTAVYYCARVGYYDSSGGGMDVWGQGTTVTVSS VL: DIQMTQSPSSLSASVGDRVTITCRASQSISSWLAWYQQKPGKAPKLLIYDASNLETGVPSRFSGSGSGTDFTLTISSLQPEDFATYYCLQTHSFPLTFGPGTKVDIKR"
binds,no binding,"Polypeptide No. 71 (scFv, V domains shown, scFv) VH: EVQLLESGGGLVQPGGSLRLSCAASGFTFSNHYMSWVRQAPGKGLEWVAVIWPDGSKEYYADSVKGRFTISRDNSKNTLYLQMNSLRAEDTAVYYCAREDYYGSGMDYWGQGTLVTVSS VL: DIQMTQSPSSLSASVGDRVTITCQASQDISNYLNWYQQKPGKAPKLLIYGASTLQSGVPSRFSGSGSGTDFTLTISSLQPEDFATYYCQQYDSYPPTFGGGTKVEIKR"
binds,no binding,"Polypeptide No. 81 (scFv, V domains shown, scFv) VH: EVQLLESGGGLVQPGGSLRLSCAASGFTFSDHYMSWVRQAPGKGLEWVSIIYPDGKTYYADSVKGRFTISRDNSKNTLYLQMNSLRAEDTAVYYCAREGSYGDYDGMDVWGQGTTVTVSS VL: DIQMTQSPSSLSASVGDRVTITCQASQDISNYLNWYQQKPGKAPKLLIYGASTLQSGVPSRFSGSGSGTDFTLTISSLQPEDFATYYCQQSYSTPWTFGQGTKLEIKR"
binds,no binding,"Polypeptide No. 88 (scFv, V domains shown, scFv) VH: QVQLVQSGAEVKKPGASVKVSCKASGYTFTGYHIHWVRQAPGQGLEWMGRINPNSGGTDYAQKFQGRVTMTRDTSTSTVYMELSSLRSEDTAVYYCARETYSGSYEESFDYWGQGTLVTVSS VL: not shown"
binds,no binding,"Polypeptide No. 86 (scFv, V domains shown, scFv) VH: QVQLVQSGAEVKKPGASVKVSCKASGYTFTTYGISWVRQAPGQGLEWMGWINPNSGDTNYAQKFQGRVTMTRDTSTSTVYMELSSLRSEDTAVYYCARLTTATDSFDLWGRGTLVTVSS VL: not shown"
